Experimental data: PMC8786823, “Flanking sequences influence the activity of TET1 and TET2 methylcytosine dioxygenases and affect genomic 5hmC patterns”

Target: T1, UHRF2 SRA domain (human, UniProt Q96PU4 419-648)
T1 sequence: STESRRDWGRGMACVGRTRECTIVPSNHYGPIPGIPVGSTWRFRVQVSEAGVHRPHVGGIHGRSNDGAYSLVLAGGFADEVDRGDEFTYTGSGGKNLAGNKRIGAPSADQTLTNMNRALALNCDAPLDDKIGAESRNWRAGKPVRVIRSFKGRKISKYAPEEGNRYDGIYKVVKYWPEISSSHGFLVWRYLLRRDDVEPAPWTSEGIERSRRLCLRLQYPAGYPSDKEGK
Experiment: EMSA; 0.5 uM DNA; preferred over mC and unmodified DNA in the same context; 20 mM HEPES pH 7.9, 100 mM NaCl, 2 mM MgCl2, 2 mM DTT, 0.1% NP-40, 5% glycerol; 30 min on ice; 6% PAGE in 0.25X TBE, GelRed stain
Conditions: protein: recombinant; tags: His; blunt

B1: TET-disf-hmC/TET-disf-rev (dsDNA)
DNA 1: GAAGCTGGGACGCGCGCCGGGAGAGTGCAA
DNA 2: TTGCACTCTCCCGGCGCGCGTCCCAGCTTC
modifications: 5hmC at position 15 of strand 1 (hemihydroxymethylated CpG)
- binding result: binds
